Patent US10334848B2, “Methods and compositions for weed control using EPSPS polynucleotides” (Monsanto Technology LLC, priority 2014, dated 2019)

Columns and labels:
[1] = system: glyphosate-resistant Waterhemp plants (“WH13”); conditions: stated as known; cited from earlier work
[2] = system: glyphosate-resistant Amaranthus palmeri plants (“R-22”); assay: Sensitization of glyphosate-resistant Palmer amaranth to glyphosate by topical dsRNA trigger, then WEATHERMAX glyphosate; format: in vivo; conditions: glyphosate 1.5 lb/ac one day after, four replications
Protocol: Double stranded RNA (dsRNA) triggers comprising polynucleotide sequences of SEQ ID NOs: 3 and 4, SEQ ID NOs: 5 and 6, and SEQ ID NOs: 7 and 8 were produced and the triggers were formulated with 0.5% SILWET® L-77, 2% AMS, and 20 mM phosphate buffer to the desired concentration. The trigger formulations were then topically applied to the leaves of glyphosate-resistant Amaranthus palmeri plants (“R-22”). Control plants were either untreated or treated with the 0.5% SILWET® L-77, 2% AMS, and 20 mM phosphate buffer solution. One day after treatment, WEATHERMAX® brand glyphosate herbicide (RU Wmax, Monsanto, St Louis, Mo.) was applied to the plants at 1.5 lb/ac. 11 days after treatment (DAT) with EPSPS trigger polynucleotides the percent growth reduction of the dsRNA treated plants was assessed relative to untreated control plants by visual score. At 14 DAT the fresh weight of the dsRNA treated and control plants were determined. Four replications were performed per treatment. […] See also FIG. 1.

[3] = system: glyphosate-resistant Amaranthus palmeri plants (“R-22”); conditions: stated as known; cited from earlier work
[4] = system: glyphosate-resistant Waterhemp (Amaranthus rudis); assay: Sensitization of glyphosate-resistant Waterhemp to glyphosate by topical dsRNA trigger (Example 3); format: in vivo; conditions: 8 nmol trigger; glyphosate 1.5 lb/ac one day after; 14 DAT; compared to plants treated with glyphosate alone
Protocol: The efficacies of mid-sized polynucleotide trigger molecules comprising SEQ ID NOs: 3 and 4 or SEQ ID NOs: 5 and 6, were assessed in glyphosate-resistant Waterhemp (Amaranthus rudis) in relation to a 24-mer trigger comprising SEQ ID NOs: 7 and 8. dsRNA triggers comprising polynucleotide sequences of SEQ ID NOs: 3 and 4, SEQ ID NOs: 5 and 6, and SEQ ID NOs: 7 and 8 were produced and the triggers were each formulated with 0.5% SILWET® L-77, 2% AMS, and 20 mM phosphate buffer to a concentration of 8 nmol. The trigger formulations were then topically applied to the leaves of glyphosate-resistant Waterhemp. Control plants were either untreated or treated with a solution of 0.5% SILWET® L-77, 2% AMS, and 20 mM phosphate buffer. One day after treatment with the trigger formulation, WEATHERMAX® brand glyphosate herbicide was applied to the plants at 1.5 lb/ac. Four replications were performed per treatment. The fresh weight of the plants was determined 14 DAT with EPSPS trigger polynucleotides and the fresh weight % compared to control plants (treated with WEATHERMAX® brand glyphosate herbicide alone) was calculated.

EPSPS mRNA = EPSPS mRNA reduction in Palmer protoplasts; format: cell-based; conditions: 6 ug dose of dsRNA trigger; Amaranthus palmeri protoplasts; FIG. 2
Protocol: The activities of mid-sized bioactive polynucleotide trigger molecules corresponding to SEQ ID NOs: 3 and 4 or SEQ ID NOs: 5 and 6 were assessed in Amaranthus palmeri protoplasts. A 6 ug dose of each dsRNA trigger (SEQ ID NO 3/4 or SEQ ID NO 5/6) was added to Amaranthus palmeri protoplasts.

[5] = system: glyphosate-resistant Waterhemp plants (“WH13”); assay: Sensitization of glyphosate-resistant Waterhemp WH13 to glyphosate, 2-16 nmol trigger (Example 5, FIG. 3); format: in vivo; conditions: 2, 4, 8 or 16 nmol trigger, glyphosate 1.5 lb/ac one day after, plants at 14 days after treatment
Protocol: The efficacies of mid-sized bioactive polynucleotide trigger molecules
Double stranded RNA (dsRNA) triggers comprising polynucleotide sequences of SEQ ID NOs: 3 and 4, SEQ ID NOs: 5 and 6, and SEQ ID NOs: 7 and 8 were produced and the bioactive trigger polynucleotides were formulated with 0.5% SILWET® L-77, 2% AMS, and 20 mM phosphate buffer to a concentration of 2 nmol, 4 nmol, 8 nmol or 16 nmol. The trigger formulations were then topically applied to the leaves of glyphosate-resistant Waterhemp plants (“WH13”). Control plants were either untreated or treated with the 0.5% SILWET® L-77, 2% AMS, and 20 mM phosphate buffer solution. One day after treatment, WEATHERMAX® brand glyphosate herbicide (RU Wmax, Monsanto, St Louis, Mo.) was applied to the plants at 1.5 lb/ac. Four replications were performed per treatment.

[6] = system: glyphosate-resistant Waterhemp plants (“WH13”); assay: Tiling of EPSPS cDNA: dsRNA trigger testing with glyphosate, fresh weight (Example 7, FIG. 4); format: in vivo; conditions: 8 nmol trigger, glyphosate 1.5 lb/ac one day after, 14 days after treatment, three replications
Protocol: The EPSPS cDNA of SEQ ID NO: 1 was tiled across the entire length of the cDNA to identify target sequences for bioactive trigger polynucleotides covering as shown in Table 5. The target nucleotide sequence were chosen to be approximately 47-62 bp in length. Bioactive trigger polynucleotides comprising a nucleotide sequence having at least 85% identity or complementarity to SEQ ID NOs: 36-66 were tested for the ability to sensitize glyphosate-resistant Waterhemp to glyphosate.
Double stranded RNA (dsRNA) triggers comprising polynucleotide sequences corresponding to SEQ ID NOs: 36-62 were produced and the bioactive trigger polynucleotides were formulated with 0.5% SILWET® L-77, 2% AMS, and 20 mM phosphate buffer to a final concentration of 8 nmol. The trigger formulations were then topically applied to the leaves of glyphosate-resistant Waterhemp plants (“WH13”). Control plants were either untreated or treated with the formulation 0.5% SILWET® L-77, 2% AMS, and 20 mM phosphate “buffer” solution. Additionally dsRNA comprising SEQ ID NOs: 7 and 8 (24-mer EPSPS trigger) was applied as a control. One day after treatment, WEATHERMAX® brand glyphosate herbicide (RU Wmax, Monsanto, St Louis, Mo.) was applied to the plants at 1.5 lb/ac.
Three replications were performed per treatment.

Molecule	sensitization of glyphosate-resistant Waterhemp to glyphosate, prior knowledge (in words) [1]	visual 11-DAT Average (percent growth reduction relative to untreated control plants by visual score) ([2]; 2 nmole trigger)	Fresh weight 14-DAT Average ([2]; 2 nmole trigger)	visual 11-DAT Average (percent growth reduction relative to untreated control plants by visual score) ([2]; 4 nmole trigger)	Fresh weight 14-DAT Average ([2]; 4 nmole trigger)	visual 11-DAT Average (percent growth reduction relative to untreated control plants by visual score) ([2]; 8 nmole trigger)	Fresh weight 14-DAT Average ([2]; 8 nmole trigger)	visual 11-DAT Average (percent growth reduction relative to untreated control plants by visual score) ([2]; 16 nmole trigger)	Fresh weight 14-DAT Average ([2]; 16 nmole trigger)	sensitization of glyphosate-resistant Palmer amaranth to glyphosate, prior knowledge (in words) [3]	% Control Fresh wt. average [4]	EPSPS mRNA reduction vs. control (EPSPS mRNA)	sensitization of glyphosate-resistant Waterhemp plants to glyphosate (in words) [5]	efficacy in sensitizing glyphosate-resistant Waterhemp to glyphosate (in words, from fresh weight) [6]
SEQ ID NO 7/8: dsRNA 24mer EPSPS Trigger (SEQ ID NO 7) and Reverse Complement (SEQ ID NO 8), known to sensitize glyphosate-resistant weeds; control (sense AUGCCAGAUGUUGCUAUGACUCUU; antisense AAGAGUCAUAGCAACAUCUGGCAU; listed as RNA, chemistry not given here) [reference compound]	known to sensitize glyphosate-resistant Waterhemp to glyphosate	47.5%	19.0	88.8%	95.3	90.0%	91.8	85.8%	93.7	known to sensitize glyphosate-resistant Palmer amaranth to glyphosate	85%			
SEQ ID NO 5/6: dsRNA trigger: 53mer EPSPS Trigger (SEQ ID NO 5) and Reverse Complement (SEQ ID NO 6), positions 1189-1241 of Amaranthus palmeri EPSPS cDNA (nucleic acid, double-stranded RNA trigger, further chemistry not given here) sense: GACGUCAACAUGAACAAAAUGCCAGAUGUUGCUAUGACUCUUGCAGUUGUUGC antisense: GCAACAACUGCAAGAGUCAUAGCAACAUCUGGCAUUUUGUUCAUGUUGACGUC		48.8%	18.2	41.3%	94.0	93.8%	96.2	81.3%	90.7		83%	84%	sensitize glyphosate-resistant Waterhemp plants to glyphosate	good efficacy
SEQ ID NO 3/4: dsRNA trigger: 50mer EPSPS Trigger (SEQ ID NO 3) and Reverse Complement (SEQ ID NO 4), positions 398-447 of Amaranthus palmeri EPSPS cDNA (nucleic acid, double-stranded RNA trigger, further chemistry not given here) sense: GAACUCUUGGUUUAAAAGUGGAGGAUGAUAGUACAGCCAAAAGGGCAGUC antisense: GACUGCCCUUUUGGCUGUACUAUCAUCCUCCACUUUUAAACCAAGAGUUC		46.3%	24.0	28.8%	94.7	88.3%	88.4	90.0%	97.0		78%	69%	sensitize glyphosate-resistant Waterhemp plants to glyphosate	good efficacy
